Experiment in all cases: cell-based or functional assay
Assay [1] deals with T1, human GIP receptor (human, UniProt P48546 22-466).
T1 sequence (looked up): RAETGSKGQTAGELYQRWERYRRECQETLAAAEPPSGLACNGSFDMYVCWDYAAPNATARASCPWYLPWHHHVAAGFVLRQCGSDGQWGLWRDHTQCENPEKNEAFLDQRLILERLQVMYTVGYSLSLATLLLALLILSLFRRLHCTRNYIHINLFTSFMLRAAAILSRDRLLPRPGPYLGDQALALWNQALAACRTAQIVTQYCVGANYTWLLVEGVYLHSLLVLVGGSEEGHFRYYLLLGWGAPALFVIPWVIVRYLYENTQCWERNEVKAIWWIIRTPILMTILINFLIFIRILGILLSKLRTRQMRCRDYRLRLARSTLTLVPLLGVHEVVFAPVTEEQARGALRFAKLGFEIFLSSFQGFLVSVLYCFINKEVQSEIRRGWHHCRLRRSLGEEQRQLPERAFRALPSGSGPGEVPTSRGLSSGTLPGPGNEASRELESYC

In assay [2] the target is human GLP-1 receptor (human, UniProt P43220 24-463).
In assay [3] the target is human glucagon receptor (human, UniProt P47871 26-477).

B1: Example 81 (peptide)
peptide: YXEGTXTSDXSIXLDXKAQXEFIKXLIEGGPSSGAPPPS
modifications: Aib2, αMeF(2F)6, 4Pal10, αMeL13, Orn16, Aib20, αMeY25, K17 and K24: K(AEEA2-CO-(CH2)12-CO2H), C-terminal NH2
Regarding B1, the results for the “EC50, cAMP” value in assay [1], in assay [2] and in assay [3] were 0.0114 nM, 0.176 nM and over 9.95 µM, respectively.

B2: Example 9 (peptide)
peptide: YXEGTXTSDXSIXLDXKAQXEFIXXLIEGGKSSGAPPPS
modifications: Aib2, αMeF(2F)6, 4Pal10, αMeL13, Orn16, Aib20, D-Glu24, αMeY25, K17 and K31: K(AEEA2-CO-(CH2)12-CO2H), C-terminal NH2
In the case of B2, the figures for the “EC50, cAMP” value in assay [1], in assay [2] and in assay [3] were 0.0102 nM, 0.421 nM and over 9.95 µM, respectively.

B3: Example 94 (peptide)
peptide: YXEGTXTSDXSIXLDXKAQXEXIXXLIEGGKSSGAPPPS
modifications: Aib2, αMeF(2F)6, Ac5c10, αMeL13, Orn16, Aib20, αMeF22, D-Glu24, αMeY25, K17 and K31: K(AEEA2-(γ-Glu)-CO-(CH2)12-CO2H), C-terminal NH2
For B3, the “EC50, cAMP” value in assay [1] is 0.0132 nM; in assay [2] it was 2.1 nM; in assay [3] it was over 9.95 µM. In assay [2], the “Emax, cAMP” value stood at 97.4%.

B4: Example 98 (peptide)
peptide: YXEGTXTSDXSIXLDXKAQXEFIXXLIEGGKSSGAPPPS
modifications: Aib2, αMeF(2F)6, ChA10, αMeL13, Orn16, Aib20, D-Glu24, αMeY25, K17 and K31: K(AEEA2-(γ-Glu)-CO-(CH2)12-CO2H), C-terminal NH2
For the molecule B4, the “EC50, cAMP” value in assay [1] was 0.0148 nM; in assay [2], 0.227 nM; in assay [3] it was over 9.95 µM.

B5: Example 104 (peptide)
peptide: YXEGTXTSDXSIXLDXKAQXEFIGXLIEGGKSSGAPPPS
modifications: Aib2, αMeF(2F)6, 4Pal10, αMeL13, Orn16, Aib20, αMeY25, K17 and K31: K(AEEA2-(γ-Glu)-CO-(CH2)12-CO2H), C-terminal NH2
As for B5, the entries for the “EC50, cAMP” value in assay [1], in assay [2] and in assay [3] were 0.0361 nM, 0.417 nM and over 9.95 µM, respectively. For the same molecule, in assay [1], the “Emax, cAMP” value was found to be 94.9%.

B6: Example 97 (peptide)
peptide: YXEGTXTSDXSIXLDXKAQXEFIXXLIEGGKSSGAPPPS
modifications: Aib2, αMeF(2F)6, ChG10, αMeL13, Orn16, Aib20, D-Glu24, αMeY25, K17 and K31: K(AEEA2-(γ-Glu)-CO-(CH2)12-CO2H), C-terminal NH2
Take B6: the “EC50, cAMP” value is 0.0276 nM in assay [1], 0.683 nM in assay [2] and over 9.95 µM in assay [3].

B7: Example 85 (peptide)
peptide: YXEGTXTSDXSIXLDXKAQXEXIKYLIEGGPSSGAPPPS
modifications: Aib2, αMeF(2F)6, 4Pal10, αMeL13, Orn16, Aib20, αMeF22, K17 and K24: K(AEEA2-(γ-Glu)-CO-(CH2)12-CO2H), C-terminal NH2
As to B7, the “EC50, cAMP” value in assay [1] is 0.0312 nM; in assay [2], 7.69 nM; in assay [3], over 9.95 µM. For the same molecule, the results for the “Emax, cAMP” value in assay [1] and in assay [2] were 91.7% and 95.3%, respectively.

B8: Example 92 (peptide)
peptide: YXEGTXTSDVSIXLDXKAQXEXIXXLIEGGKSSGAPPPS
modifications: Aib2, αMeF(2F)6, αMeL13, Orn16, Aib20, αMeF22, D-Glu24, αMeY25, K17 and K31: K(AEEA2-(γ-Glu)-CO-(CH2)12-CO2H), C-terminal NH2
Take B8: the results for the “EC50, cAMP” value in assay [1], in assay [2] and in assay [3] were 0.0251 nM, 0.942 nM and over 9.95 µM, respectively.

B9: Example 96 (peptide)
peptide: YXEGTXTSDXSIXLDXKAQXEFIXXLIEGGKSSGAPPPS
modifications: Aib2, αMeF(2F)6, 4CPhe10, αMeL13, Orn16, Aib20, D-Glu24, αMeY25, K17 and K31: K(AEEA2-(γ-Glu)-CO-(CH2)12-CO2H), C-terminal NH2
Turning to B9, the figures for the “EC50, cAMP” value in assay [1], in assay [2] and in assay [3] were 0.0484 nM, 6.81 nM and over 9.95 µM, respectively.

B10: Example 105 (peptide)
peptide: YXEGTXTSDKSIXLDXIAQXKFIXXLIEGGPSSGAPPPS
modifications: Aib2, αMeF(2F)6, αMeL13, Orn16, Aib20, D-Glu24, αMeY25, K10 and K21: K(AEEA2-(γ-Glu)-CO-(CH2)12-CO2H), C-terminal NH2
As to B10, the “EC50, cAMP” value is 0.0366 nM in assay [1], 0.52 nM in assay [2] and over 9.95 µM in assay [3].

B11: Example 87 (peptide)
peptide: YXEGTXTSDXSIXLDXKAQXEFIXXLIEGGKSSGAPPPS
modifications: Aib2, αMeF(2F)6, αMeF(2F)10, αMeL13, Orn16, Aib20, D-Glu24, αMeY25, K17 and K31: K(AEEA2-(γ-Glu)-CO-(CH2)12-CO2H), C-terminal NH2
As for B11, the “EC50, cAMP” value in assay [1] was 0.029 nM; in assay [2], 1.34 nM; in assay [3] it was over 9.95 µM. In assay [1], the “Emax, cAMP” value is 84.7%.

B12: Example 83 (peptide)
peptide: YXEGTXTSDXSIXLDXKAQXEFIKXLIEGGPSSGAPPPS
modifications: Aib2, αMeF(2F)6, 4Pal10, αMeL13, Orn16, Aib20, αMeF25, K17 and K24: K(AEEA2-(γ-Glu)-CO-(CH2)12-CO2H), C-terminal NH2
For B12, the “EC50, cAMP” value in assay [1] is 0.0223 nM; in assay [2], 0.451 nM; in assay [3] it was over 9.95 µM. Besides, the “Emax, cAMP” value in assay [1] stood at 89.6%.

B13: Example 84 (peptide)
peptide: YXEGTXTSDXSIXLDXKAQXEXIKXLIEGGPSSGAPPPS
modifications: Aib2, αMeF(2F)6, 4Pal10, αMeL13, Orn16, Aib20, αMeF22, αMeF25, K17 and K24: K(AEEA2-(γ-Glu)-CO-(CH2)12-CO2H), C-terminal NH2
On to B13, for which the “EC50, cAMP” value in assay [1] was 0.0315 nM; in assay [2] it was 5.27 nM; in assay [3], over 9.95 µM. Besides, the entries for the “Emax, cAMP” value in assay [1] and in assay [2] were 98.5% and 94%, respectively.
